Columns and labels:
ELF2 = ELF2 (Homo sapiens, UniProt Q15723); assay: pulldown; 150 mM NaCl, 50 mM Tris pH 8, 0.25% NP-40, 1 mM TCEP; 4 C, 2 h; 100 ug HeLa nuclear lysate; settings: protein: extract; label: 5' biotin (strand 1)
RREB1 = RREB1 (Homo sapiens, UniProt Q92766); assay: as above; settings: protein: extract; label: 5' biotin (strand 1)
SIX2 = biological target: T1, SIX2 (Homo sapiens, UniProt Q9NPC8); assay: as above; settings: protein: extract; label: 5' biotin (strand 1)
T1 sequence: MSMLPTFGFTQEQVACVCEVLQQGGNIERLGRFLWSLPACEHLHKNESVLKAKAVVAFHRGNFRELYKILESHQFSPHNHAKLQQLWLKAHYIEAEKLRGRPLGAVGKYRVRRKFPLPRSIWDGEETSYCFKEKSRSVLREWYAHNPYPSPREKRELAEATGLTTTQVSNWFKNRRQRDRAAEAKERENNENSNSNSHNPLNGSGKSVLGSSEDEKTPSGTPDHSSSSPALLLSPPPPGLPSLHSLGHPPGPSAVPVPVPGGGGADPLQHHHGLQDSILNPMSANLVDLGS

BBX = biological target: T2, BBX (Homo sapiens, UniProt Q8WY36); assay: as above; settings: protein: extract; label: 5' biotin (strand 1)
T2 sequence: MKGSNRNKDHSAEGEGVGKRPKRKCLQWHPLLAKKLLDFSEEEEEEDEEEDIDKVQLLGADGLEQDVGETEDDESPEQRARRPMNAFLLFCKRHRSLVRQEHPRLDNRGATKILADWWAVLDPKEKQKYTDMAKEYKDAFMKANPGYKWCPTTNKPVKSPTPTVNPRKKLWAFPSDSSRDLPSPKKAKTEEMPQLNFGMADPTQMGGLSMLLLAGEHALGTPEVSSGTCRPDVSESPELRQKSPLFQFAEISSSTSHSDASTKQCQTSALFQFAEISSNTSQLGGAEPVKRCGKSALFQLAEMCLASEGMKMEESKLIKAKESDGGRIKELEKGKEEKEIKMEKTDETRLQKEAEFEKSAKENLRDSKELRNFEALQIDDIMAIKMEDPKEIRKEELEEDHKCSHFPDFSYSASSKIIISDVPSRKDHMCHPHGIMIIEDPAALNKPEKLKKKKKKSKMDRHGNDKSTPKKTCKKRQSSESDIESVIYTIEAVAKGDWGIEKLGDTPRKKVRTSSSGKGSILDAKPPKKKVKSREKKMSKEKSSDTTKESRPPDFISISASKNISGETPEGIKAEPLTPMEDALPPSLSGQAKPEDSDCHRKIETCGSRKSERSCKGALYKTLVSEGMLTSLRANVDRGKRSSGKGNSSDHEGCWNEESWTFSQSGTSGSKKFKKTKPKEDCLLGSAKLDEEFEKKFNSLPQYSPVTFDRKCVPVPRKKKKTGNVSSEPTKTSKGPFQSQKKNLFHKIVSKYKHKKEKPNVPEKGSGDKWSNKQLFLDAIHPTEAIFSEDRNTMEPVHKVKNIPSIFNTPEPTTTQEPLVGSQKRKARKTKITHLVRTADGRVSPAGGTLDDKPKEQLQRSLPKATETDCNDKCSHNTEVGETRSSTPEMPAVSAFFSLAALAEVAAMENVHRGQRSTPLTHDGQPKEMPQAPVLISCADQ

TGIF1 = TGIF1 (Homo sapiens, UniProt Q15583); assay: as above; settings: protein: extract; label: 5' biotin (strand 1)
Sequence of TGIF1 (Q15583 whole entry): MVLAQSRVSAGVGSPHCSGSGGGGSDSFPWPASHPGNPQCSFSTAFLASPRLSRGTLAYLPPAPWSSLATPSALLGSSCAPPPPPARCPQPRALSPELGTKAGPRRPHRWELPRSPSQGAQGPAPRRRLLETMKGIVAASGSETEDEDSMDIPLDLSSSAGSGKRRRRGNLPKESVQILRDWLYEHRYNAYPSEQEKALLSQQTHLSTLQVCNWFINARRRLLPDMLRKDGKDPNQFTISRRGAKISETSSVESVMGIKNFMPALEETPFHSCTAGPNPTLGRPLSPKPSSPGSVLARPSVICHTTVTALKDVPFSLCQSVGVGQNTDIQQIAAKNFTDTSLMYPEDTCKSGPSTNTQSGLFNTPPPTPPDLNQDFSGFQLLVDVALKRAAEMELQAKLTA

TFAP2A = TFAP2A (Homo sapiens, UniProt P05549); assay: as above; settings: protein: extract; label: 5' biotin (strand 1)
Sequence of TFAP2A (P05549 whole entry): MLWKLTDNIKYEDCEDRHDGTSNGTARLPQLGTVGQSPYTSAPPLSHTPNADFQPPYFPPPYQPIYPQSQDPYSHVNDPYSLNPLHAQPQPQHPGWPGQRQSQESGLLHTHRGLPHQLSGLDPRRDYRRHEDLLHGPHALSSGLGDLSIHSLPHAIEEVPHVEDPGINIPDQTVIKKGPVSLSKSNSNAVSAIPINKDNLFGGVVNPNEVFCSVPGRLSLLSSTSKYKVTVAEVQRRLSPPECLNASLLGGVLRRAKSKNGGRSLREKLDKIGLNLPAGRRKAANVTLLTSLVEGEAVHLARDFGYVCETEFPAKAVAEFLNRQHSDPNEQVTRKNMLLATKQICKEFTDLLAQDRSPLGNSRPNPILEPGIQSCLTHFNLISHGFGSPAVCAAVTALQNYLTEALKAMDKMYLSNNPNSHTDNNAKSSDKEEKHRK

VEZF1 = biological target: T3, VEZF1 (Homo sapiens, UniProt Q14119); assay: as above; settings: protein: extract; label: 5' biotin (strand 1)
T3 sequence: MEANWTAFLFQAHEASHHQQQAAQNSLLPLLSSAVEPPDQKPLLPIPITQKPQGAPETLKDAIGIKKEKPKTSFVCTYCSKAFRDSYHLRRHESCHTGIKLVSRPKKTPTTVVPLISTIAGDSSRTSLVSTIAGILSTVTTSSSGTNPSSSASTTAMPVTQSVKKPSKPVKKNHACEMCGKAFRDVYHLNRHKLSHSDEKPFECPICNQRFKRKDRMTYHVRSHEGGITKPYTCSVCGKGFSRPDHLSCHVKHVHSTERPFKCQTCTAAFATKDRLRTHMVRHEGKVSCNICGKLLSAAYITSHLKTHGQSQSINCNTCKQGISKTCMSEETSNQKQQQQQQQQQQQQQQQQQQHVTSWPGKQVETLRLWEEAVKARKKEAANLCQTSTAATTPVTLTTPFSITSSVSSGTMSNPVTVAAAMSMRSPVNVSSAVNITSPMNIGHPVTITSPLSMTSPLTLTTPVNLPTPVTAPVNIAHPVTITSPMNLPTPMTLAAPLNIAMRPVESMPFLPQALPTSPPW

ZBTB7A = ZBTB7A (Homo sapiens, UniProt O95365); assay: as above; settings: protein: extract; label: 5' biotin (strand 1)
Sequence of ZBTB7A (O95365 whole entry): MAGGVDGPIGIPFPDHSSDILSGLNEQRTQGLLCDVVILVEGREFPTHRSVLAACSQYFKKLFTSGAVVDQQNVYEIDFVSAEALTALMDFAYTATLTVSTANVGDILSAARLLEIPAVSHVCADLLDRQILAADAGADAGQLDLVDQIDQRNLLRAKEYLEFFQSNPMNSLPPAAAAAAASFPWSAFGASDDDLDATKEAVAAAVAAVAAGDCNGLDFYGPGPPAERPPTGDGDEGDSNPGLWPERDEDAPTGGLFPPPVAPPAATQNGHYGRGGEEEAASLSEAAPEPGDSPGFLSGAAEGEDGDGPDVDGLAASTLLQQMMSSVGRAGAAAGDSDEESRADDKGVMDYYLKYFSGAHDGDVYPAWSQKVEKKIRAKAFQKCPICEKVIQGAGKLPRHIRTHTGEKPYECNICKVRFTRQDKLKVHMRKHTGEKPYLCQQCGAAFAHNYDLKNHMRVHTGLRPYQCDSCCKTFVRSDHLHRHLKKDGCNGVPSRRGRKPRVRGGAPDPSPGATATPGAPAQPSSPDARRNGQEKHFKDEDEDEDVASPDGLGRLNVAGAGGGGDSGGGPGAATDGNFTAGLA

ZBTB7B = ZBTB7B (Homo sapiens, UniProt O15156); assay: as above; settings: protein: extract; label: 5' biotin (strand 1)
SMARCB1-WHD = SMARCB1-WHD (UniProt Q12824 1-113); assay: pull-down; Pull-down: 150 mM NaCl (or LiCl), 50 mM Tris pH 8, 0.25% NP-40, 1 mM TCEP, protease inhibitors, 4 C, 2 h; EMSA with lysate in same buffer, RT 15 min; FP in PBS, 25 C; settings: protein: recombinant; label: 5' biotin; G4
Sequence of SMARCB1-WHD (Q12824 1-113): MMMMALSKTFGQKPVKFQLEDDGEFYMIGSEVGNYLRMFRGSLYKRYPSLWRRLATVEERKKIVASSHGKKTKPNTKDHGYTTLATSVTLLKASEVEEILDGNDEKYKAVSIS

PHF10-DPF = biological target: T4, PHF10-DPF (UniProt Q8WUB8 379-481); assay: as above; settings: protein: recombinant; tags: GST; label: 5' biotin; G4
T4 sequence: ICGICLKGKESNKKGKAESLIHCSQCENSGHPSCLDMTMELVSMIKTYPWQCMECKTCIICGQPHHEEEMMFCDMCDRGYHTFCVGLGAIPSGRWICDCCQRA

GATA2 = GATA2 (Homo sapiens, UniProt P23769); assay: pulldown; 150 mM NaCl, 50 mM Tris pH 8, 0.25% NP-40, 1 mM TCEP; 4 C, 2 h; 100 ug HeLa nuclear lysate; settings: protein: extract; label: 5' biotin (strand 1)
Sequence of GATA2 (P23769 whole entry): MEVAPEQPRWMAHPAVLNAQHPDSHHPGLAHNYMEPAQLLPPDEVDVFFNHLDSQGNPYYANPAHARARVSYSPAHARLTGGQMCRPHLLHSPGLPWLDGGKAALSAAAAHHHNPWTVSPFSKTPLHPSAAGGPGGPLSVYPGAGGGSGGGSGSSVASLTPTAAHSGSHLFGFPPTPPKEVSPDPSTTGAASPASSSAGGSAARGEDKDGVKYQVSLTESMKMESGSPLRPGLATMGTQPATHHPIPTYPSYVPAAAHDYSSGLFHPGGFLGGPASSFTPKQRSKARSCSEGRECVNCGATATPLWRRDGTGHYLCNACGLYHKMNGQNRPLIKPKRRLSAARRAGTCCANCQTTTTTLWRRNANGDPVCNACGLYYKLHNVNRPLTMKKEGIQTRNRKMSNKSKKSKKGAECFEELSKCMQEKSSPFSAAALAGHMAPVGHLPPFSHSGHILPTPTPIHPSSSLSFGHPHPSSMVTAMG

ZFHX3 = ZFHX3 (Homo sapiens, UniProt Q15911); assay: as above; settings: protein: extract; label: 5' biotin (strand 1)
ZNF787 = ZNF787 (Homo sapiens, UniProt Q6DD87); assay: as above; settings: protein: extract; label: 5' biotin (strand 1)
Sequence of ZNF787 (Q6DD87 whole entry): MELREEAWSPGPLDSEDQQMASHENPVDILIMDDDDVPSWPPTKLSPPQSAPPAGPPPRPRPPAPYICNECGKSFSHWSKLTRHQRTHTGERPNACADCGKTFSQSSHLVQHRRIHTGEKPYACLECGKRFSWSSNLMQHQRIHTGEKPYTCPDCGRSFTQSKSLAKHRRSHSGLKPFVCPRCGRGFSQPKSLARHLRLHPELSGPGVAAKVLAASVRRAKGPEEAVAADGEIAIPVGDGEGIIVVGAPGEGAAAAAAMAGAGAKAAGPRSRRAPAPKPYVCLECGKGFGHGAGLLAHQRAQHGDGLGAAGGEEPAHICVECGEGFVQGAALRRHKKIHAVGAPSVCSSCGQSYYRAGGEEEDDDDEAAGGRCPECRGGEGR

SP1 = SP1 (Homo sapiens, UniProt P08047); assay: as above; settings: protein: extract; label: 5' biotin (strand 1)
KLF16 = KLF16 (Homo sapiens, UniProt Q9BXK1); assay: as above; settings: protein: extract; label: 5' biotin (strand 1)
Sequence of KLF16 (Q9BXK1 whole entry): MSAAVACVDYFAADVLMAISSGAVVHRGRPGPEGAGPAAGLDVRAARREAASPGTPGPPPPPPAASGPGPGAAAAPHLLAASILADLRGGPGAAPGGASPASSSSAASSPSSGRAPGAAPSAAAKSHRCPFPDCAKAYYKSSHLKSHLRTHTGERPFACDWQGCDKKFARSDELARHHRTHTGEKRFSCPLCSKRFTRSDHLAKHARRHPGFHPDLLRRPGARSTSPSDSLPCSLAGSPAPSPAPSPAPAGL

DLX3 = DLX3 (Homo sapiens, UniProt O60479); assay: as above; settings: protein: extract; label: 5' biotin (strand 1)
Sequence of DLX3 (O60479 whole entry): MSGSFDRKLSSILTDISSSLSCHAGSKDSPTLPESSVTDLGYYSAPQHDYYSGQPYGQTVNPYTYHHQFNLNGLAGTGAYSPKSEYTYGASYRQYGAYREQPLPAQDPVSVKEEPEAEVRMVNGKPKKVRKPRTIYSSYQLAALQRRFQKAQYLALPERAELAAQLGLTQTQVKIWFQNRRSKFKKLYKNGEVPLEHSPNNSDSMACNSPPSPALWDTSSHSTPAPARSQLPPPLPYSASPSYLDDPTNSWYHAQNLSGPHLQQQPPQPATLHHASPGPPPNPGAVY

Sequence of RREB1 (Q92766 whole entry): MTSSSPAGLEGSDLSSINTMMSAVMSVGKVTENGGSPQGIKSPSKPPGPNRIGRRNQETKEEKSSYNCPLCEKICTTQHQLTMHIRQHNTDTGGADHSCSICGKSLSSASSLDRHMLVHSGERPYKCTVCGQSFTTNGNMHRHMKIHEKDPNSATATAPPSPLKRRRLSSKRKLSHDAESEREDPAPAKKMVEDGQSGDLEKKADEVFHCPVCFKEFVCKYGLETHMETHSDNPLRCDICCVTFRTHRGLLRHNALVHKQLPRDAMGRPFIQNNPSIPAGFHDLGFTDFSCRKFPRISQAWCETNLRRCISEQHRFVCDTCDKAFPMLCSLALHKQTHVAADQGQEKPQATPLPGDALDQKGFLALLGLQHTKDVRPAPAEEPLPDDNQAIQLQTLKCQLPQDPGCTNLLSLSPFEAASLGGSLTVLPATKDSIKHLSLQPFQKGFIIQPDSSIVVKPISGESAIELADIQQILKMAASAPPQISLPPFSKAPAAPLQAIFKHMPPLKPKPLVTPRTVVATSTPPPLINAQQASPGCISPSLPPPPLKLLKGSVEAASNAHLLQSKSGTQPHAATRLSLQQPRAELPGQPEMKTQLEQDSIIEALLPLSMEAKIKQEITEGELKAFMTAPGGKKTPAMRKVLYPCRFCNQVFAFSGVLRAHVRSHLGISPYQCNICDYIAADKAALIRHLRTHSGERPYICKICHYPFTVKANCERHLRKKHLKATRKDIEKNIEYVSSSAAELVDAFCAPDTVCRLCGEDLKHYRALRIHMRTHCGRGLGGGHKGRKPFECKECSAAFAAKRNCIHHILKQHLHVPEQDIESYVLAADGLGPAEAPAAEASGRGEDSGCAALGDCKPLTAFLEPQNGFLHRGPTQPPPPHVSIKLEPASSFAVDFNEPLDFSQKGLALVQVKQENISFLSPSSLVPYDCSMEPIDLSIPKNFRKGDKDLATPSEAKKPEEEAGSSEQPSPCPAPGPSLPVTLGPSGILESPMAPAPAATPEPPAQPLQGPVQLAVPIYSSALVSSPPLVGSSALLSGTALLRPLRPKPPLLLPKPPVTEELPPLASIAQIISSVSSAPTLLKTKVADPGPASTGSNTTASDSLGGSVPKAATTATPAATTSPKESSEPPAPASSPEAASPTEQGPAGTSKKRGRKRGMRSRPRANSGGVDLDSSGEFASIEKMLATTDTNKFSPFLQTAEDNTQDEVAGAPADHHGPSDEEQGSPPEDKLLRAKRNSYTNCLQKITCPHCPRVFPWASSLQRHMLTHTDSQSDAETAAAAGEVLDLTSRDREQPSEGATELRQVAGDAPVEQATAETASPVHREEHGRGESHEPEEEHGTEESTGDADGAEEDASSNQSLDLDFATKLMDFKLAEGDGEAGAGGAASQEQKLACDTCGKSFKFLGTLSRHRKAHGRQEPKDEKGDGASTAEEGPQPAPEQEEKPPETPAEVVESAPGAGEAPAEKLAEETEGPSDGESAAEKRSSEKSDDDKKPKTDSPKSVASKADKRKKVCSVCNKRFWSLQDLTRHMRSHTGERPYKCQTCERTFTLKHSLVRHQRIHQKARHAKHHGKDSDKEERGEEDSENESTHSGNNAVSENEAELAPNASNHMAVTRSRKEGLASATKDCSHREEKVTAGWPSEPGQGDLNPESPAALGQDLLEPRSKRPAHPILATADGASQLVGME

B1: AP-1 (dsDNA)
DNA 1: AGTCGGCTAGCTGACTCAGGATGTCC
DNA 2: GGACATCCTGAGTCAGCTAGCCGACT
In the case of B1, the “apparent K (half saturation)” value (ELF2) is reported as 205 nM, the “apparent K (half saturation)” value (RREB1) is reported as 317 nM and the “apparent K (half saturation)” value (SIX2) is reported as 59.9 nM. The “apparent K (half saturation)” value (BBX) was 308 nM, the “apparent K (half saturation)” value (TGIF1) was 322 nM and the “apparent K (half saturation)” value (TFAP2A) was 363 nM. For the same binder, the “apparent K (half saturation)” value (VEZF1) was 255 nM.

B2: E-box (dsDNA)
DNA 1: GGAAGCAGACCACGTGGTCTGCTTCC
DNA 2: GGAAGCAGACCACGTGGTCTGCTTCC
With B2 the “apparent K (half saturation)” value (ZBTB7A) was 404 nM and the “apparent K (half saturation)” value (ZBTB7B) was 405 nM.

B3: mycG4 (Pu27) (structured_DNA)
DNA: TGGGGAGGGTGGGGAGGGTGGGGAAGG
B3: binds (SMARCB1-WHD); no binding (PHF10-DPF).

B4: NF-Y (dsDNA)
DNA 1: ATTGACCAATCAGAGGTAGGATGAT
DNA 2: ATCATCCTACCTCTGATTGGTCAAT
In the case of B4, the “apparent K (half saturation)” value (GATA2) is reported as 126 nM, the “apparent K (half saturation)” value (ZFHX3) is reported as 56.9 nM and the “apparent K (half saturation)” value (ZNF787) is reported as 394 nM. For the same binder, the “apparent K (half saturation)” value (RREB1) was 283 nM, the “apparent K (half saturation)” value (SP1) was 185 nM and the “apparent K (half saturation)” value (KLF16) was 200 nM. For the same binder, the “apparent K (half saturation)” value (DLX3) was 52.9 nM and the “apparent K (half saturation)” value (VEZF1) was 249 nM.

Reference: publication PMC5916898, “Global profiling of protein–DNA and protein–nucleosome binding affinities using quantitative mass spectrometry”
